Test results: US20210388107A1 (BYONDIS B V, published 2021)

B1: 29AM4-5-LALA (IgG1) (antibody, V domains shown)
VH: EVQLVESGGGLVQPGGSLRLSCAASGFNISYYFIHWVRQAPGKGLEWVASVYSSFGYTYYADSVKGRFTISADTSKNTAYLQMNSLRAEDTAVYYCARFTFPGLFDGFFGAYLGSLDYWGQGTLVTVSS
VL: DIQMTQSPSSLSASVGDRVTITCRASQSVSSAVAWYQQKPGKAPKLLIYSASSLYSGVPSRFSGSRSGTDFTLTISSLQPEDFATYYCQQAVNWVGALVTFGQGTKVEIKR
notes: human IgG1 LALA, kappa; also called 29AM4-5huIgG1LALA
B2: humanized anti-SIRPα antibody 6 (antibody, human IgG1, kappa, L234A L235A, V domains shown)
VH: RQLVESGGGLVQPGGSLRLSCTASGFSLSSHGISWVRQAPGKGLEYIGTIGTGVITYFASWAKGRFTGSKTSSTAYMELSSLRSEDTAVYFCARGSAWNDPFDPWGQGTLVTVSS
VL: DIVMTQSPSSLSASVGDRVTITCQASQSVYGNNDLAWYQQKPGQAPKLLIYLASTLATGVPSRFSGSGSGTDFTLTISSLQPEDFATYYCLGGGDDEADNTFGQGTKVEIKR
notes: human IgG1 LALA, kappa; also called mAb 6
B3: KWAR23-LALA (chimeric IgG1, LALA) (antibody)
heavy: not shown
light: QIVLTQSPAIMSASPGEKVTLTCSASSSVSSSYLYWYQQKPGSSPKLWIYSTSNLASGVPARFSGSGSGTSYSLTISSMEAEDAASYFCHQWSSYPRTFGAGTKLELKRTVAAPSVFIFPPSDEQLKSGTASVVCLLNNFYPREAKVQWKVDNALQSGNSQESVTEQDSKDSTYSLSSTLTLSKADYEKHKVYACEVTHQGLSSPVTKSFNRGEC
notes: chimeric human IgG1 LALA, kappa; also called KWAR23huIgG1LALA

What was measured:
[1] = target: T1, human SIRPγ, extracellular domain, Avi-FXa-Fc tag (human, biotinylated); test: SPR, captured biotinylated antigen
T1 construct: also called huSIRPγ

[2] = target: human SIRPαBIT expressed on cells (human, UniProt P78324 31-504); test: cell-based or functional assay
Chain of human SIRPαBIT expressed on cells (P78324 31-504 limits assumed): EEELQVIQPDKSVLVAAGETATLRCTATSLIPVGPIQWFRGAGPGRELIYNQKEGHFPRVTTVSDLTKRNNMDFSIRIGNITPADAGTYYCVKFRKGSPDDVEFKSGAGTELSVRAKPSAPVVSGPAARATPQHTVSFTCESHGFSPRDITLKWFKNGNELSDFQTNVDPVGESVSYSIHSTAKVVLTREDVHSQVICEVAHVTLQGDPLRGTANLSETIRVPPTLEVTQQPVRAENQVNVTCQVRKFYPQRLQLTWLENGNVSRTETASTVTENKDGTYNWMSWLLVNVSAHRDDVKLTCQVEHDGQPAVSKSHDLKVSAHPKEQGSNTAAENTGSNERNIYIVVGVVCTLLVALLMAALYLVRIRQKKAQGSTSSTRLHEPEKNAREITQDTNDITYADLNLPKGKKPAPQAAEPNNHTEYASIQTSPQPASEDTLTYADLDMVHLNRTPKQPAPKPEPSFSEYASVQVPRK

T1 sequence (chain, as listed by the source limits assumed): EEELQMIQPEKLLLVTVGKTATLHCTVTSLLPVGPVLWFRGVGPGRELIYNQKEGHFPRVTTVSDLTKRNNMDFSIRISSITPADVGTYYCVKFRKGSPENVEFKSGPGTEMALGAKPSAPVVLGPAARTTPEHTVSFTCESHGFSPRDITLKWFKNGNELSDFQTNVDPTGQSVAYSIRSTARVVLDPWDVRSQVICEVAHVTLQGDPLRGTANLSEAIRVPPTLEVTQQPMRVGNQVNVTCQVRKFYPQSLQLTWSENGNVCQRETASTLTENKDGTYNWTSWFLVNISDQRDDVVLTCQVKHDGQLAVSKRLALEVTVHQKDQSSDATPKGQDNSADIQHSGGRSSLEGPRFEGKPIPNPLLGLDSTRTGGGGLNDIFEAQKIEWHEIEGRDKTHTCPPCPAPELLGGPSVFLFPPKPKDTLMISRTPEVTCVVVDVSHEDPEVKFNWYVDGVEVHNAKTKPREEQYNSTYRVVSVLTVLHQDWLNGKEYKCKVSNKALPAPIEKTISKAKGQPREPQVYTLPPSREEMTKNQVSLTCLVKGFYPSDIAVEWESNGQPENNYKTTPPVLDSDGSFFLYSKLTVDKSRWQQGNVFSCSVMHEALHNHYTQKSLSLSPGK

| Binder | Kd [1] [nM] | IC50 (read off the curve), CD47-driven SHP-1 recruitment to SIRPαBIT [2] [µg/mL] |
| --- | --- | --- |
| B1 | 0.445 |  |
| B2 |  | ~0.2 |
| B3 | < 0.01 |  |
